The chains are these.
T1: EsCas13d, nuclease-dead (Eubacterium siraeum, UniProt B0MS50, R295A;H300A;R849A;H854A)
T1 sequence: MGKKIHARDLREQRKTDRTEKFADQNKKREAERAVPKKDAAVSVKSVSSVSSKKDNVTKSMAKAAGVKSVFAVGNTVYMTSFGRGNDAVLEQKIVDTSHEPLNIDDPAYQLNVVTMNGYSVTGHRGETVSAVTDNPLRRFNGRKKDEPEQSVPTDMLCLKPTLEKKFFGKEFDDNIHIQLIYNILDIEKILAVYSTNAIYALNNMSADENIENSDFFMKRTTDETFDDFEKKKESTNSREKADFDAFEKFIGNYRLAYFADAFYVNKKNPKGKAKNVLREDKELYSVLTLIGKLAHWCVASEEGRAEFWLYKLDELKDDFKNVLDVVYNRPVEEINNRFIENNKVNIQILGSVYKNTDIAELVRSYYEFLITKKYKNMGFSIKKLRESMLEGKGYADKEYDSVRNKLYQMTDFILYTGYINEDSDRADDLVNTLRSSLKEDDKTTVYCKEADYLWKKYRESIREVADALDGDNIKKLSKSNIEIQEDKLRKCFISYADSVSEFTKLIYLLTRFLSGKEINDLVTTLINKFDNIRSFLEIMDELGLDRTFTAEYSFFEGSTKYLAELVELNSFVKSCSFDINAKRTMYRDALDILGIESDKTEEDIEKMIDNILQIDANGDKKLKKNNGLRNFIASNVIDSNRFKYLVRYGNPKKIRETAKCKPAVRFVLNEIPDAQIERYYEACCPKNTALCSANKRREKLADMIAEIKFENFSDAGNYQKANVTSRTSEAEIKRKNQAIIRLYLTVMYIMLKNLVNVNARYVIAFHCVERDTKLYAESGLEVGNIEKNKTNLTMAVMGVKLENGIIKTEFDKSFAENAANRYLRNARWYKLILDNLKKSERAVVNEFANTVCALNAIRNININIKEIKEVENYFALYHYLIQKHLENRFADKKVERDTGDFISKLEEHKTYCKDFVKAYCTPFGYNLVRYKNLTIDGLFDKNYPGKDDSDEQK

B1: target 1 MT 5'PFS UAG 3'PFS UAA (mixed)
RNA 1: CACCCGUGCAAAAAUGCAGGGGUCUAAAACUGAGCGGAUAACCUCUCUAUGG
RNA 2: GGGAAUGGAUCCACAUCUACGAAUUCUAGCCAUAGAGAGGUUAUCCGCUCAUAAAGAUCGGAAGAGCACACGU
B2: target 1 MT 5'PFS GGA 3'PFS CUU (mixed)
RNA 1: B1 RNA 1
RNA 2: B1 RNA 2 with U27G, A28G, G29A, U52C, A53U, A54U
B3: target 1 MT 5'PFS AGU 3'PFS ACG (mixed)
RNA 1: B1 RNA 1
RNA 2: B1 RNA 2 with U27A, A28G, G29U, U52A, A53C, A54G
B4: target 1 U3G,G5C (mixed)
RNA 1: B1 RNA 1
RNA 2: B1 RNA 2 with U27G, A28U, G29A, G47C, U49G, U52C, A53C, A54G
B5: target 1 MT 5'PFS AAA 3'PFS UAG (mixed)
RNA 1: B1 RNA 1
RNA 2: B1 RNA 2 with U27A, G29A, A54G
B6: target 1 MT 5'PFS UAA 3'PFS UCA (mixed)
RNA 1: B1 RNA 1
RNA 2: B1 RNA 2 with G29A, A53C
B7: target 1 MT 5'PFS UAA 3'PFS UCU (mixed)
RNA 1: B1 RNA 1
RNA 2: B1 RNA 2 with G29A, A53C, A54U
B8: target 1 MT 5'PFS GGG 3'PFS UAU (mixed)
RNA 1: B1 RNA 1
RNA 2: B1 RNA 2 with U27G, A28G, A54U
B9: target 1 MT 5'PFS UCC 3'PFS UGU (mixed)
RNA 1: B1 RNA 1
RNA 2: B1 RNA 2 with A28C, G29C, A53G, A54U
B10: target 1 MT 5'PFS UAA 3'PFS AUG (mixed)
RNA 1: B1 RNA 1
RNA 2: B1 RNA 2 with G29A, U52A, A53U, A54G
B11: target 1 MT 5'PFS UAA 3'PFS AUA (mixed)
RNA 1: B1 RNA 1
RNA 2: B1 RNA 2 with G29A, U52A, A53U
B12: target 1 MT 5'PFS CUC 3'PFS UGC (mixed)
RNA 1: B1 RNA 1
RNA 2: B1 RNA 2 with U27C, A28U, G29C, A53G, A54C
B13: target 1 MT 5'PFS GAC 3'PFS CAA (mixed)
RNA 1: B1 RNA 1
RNA 2: B1 RNA 2 with U27G, G29C, U52C
B14: target 1 C2G,U10G (mixed)
RNA 1: B1 RNA 1
RNA 2: B1 RNA 2 with U27G, A28U, G29A, U42G, C50G, U52C, A53C, A54G
B15: target 1 MT 5'PFS GAC 3'PFS CAU (mixed)
RNA 1: B1 RNA 1
RNA 2: B1 RNA 2 with U27G, G29C, U52C, A54U
B16: target 1 MT 5'PFS GAC 3'PFS CAC (mixed)
RNA 1: B1 RNA 1
RNA 2: B1 RNA 2 with U27G, G29C, U52C, A54C
B17: target 1 MT 5'PFS GGG 3'PFS UAC (mixed)
RNA 1: B1 RNA 1
RNA 2: B1 RNA 2 with U27G, A28G, A54C
B18: target 1 MT 5'PFS UGG 3'PFS CCG (mixed)
RNA 1: B1 RNA 1
RNA 2: B1 RNA 2 with A28G, U52C, A53C, A54G
B19: target 1 insA 3' of 19,insA 3' of 7 (mixed)
RNA 1: B1 RNA 1
RNA 2: GGGAAUGGAUCCACAUCUACGAAUUCGUACCAUAAGAGAGGUUAUCACGCUCACCGAGAUCGGAAGAGCACACGU
B20: target 1 MT 5'PFS CCA 3'PFS UGA (mixed)
RNA 1: B1 RNA 1
RNA 2: B1 RNA 2 with U27C, A28C, G29A, A53G
B21: target 1 MT 5'PFS GGA 3'PFS CUG (mixed)
RNA 1: B1 RNA 1
RNA 2: B1 RNA 2 with U27G, A28G, G29A, U52C, A53U, A54G
B22: target 1 MT 5'PFS ACC 3'PFS UUG (mixed)
RNA 1: B1 RNA 1
RNA 2: B1 RNA 2 with U27A, A28C, G29C, A53U, A54G
B23: target 1 MT 5'PFS UCA 3'PFS CGA (mixed)
RNA 1: B1 RNA 1
RNA 2: B1 RNA 2 with A28C, G29A, U52C, A53G
B24: target 1 MT 5'PFS GGG 3'PFS UAG (mixed)
RNA 1: B1 RNA 1
RNA 2: B1 RNA 2 with U27G, A28G, A54G
B25: target 1 MT 5'PFS GGG 3'PFS UAA (mixed)
RNA 1: B1 RNA 1
RNA 2: B1 RNA 2 with U27G, A28G
B26: target 1 MT 5'PFS UAA 3'PFS UCC (mixed)
RNA 1: B1 RNA 1
RNA 2: B1 RNA 2 with G29A, A53C, A54C
B27: target 1 MT 5'PFS CCA 3'PFS UGC (mixed)
RNA 1: B1 RNA 1
RNA 2: B1 RNA 2 with U27C, A28C, G29A, A53G, A54C
B28: target 1 MT 5'PFS AGU 3'PFS ACC (mixed)
RNA 1: B1 RNA 1
RNA 2: B1 RNA 2 with U27A, A28G, G29U, U52A, A53C, A54C
B29: target 1 MT 5'PFS AGU 3'PFS ACU (mixed)
RNA 1: B1 RNA 1
RNA 2: B1 RNA 2 with U27A, A28G, G29U, U52A, A53C, A54U
B30: target 1 MT 5'PFS UCC 3'PFS UGC (mixed)
RNA 1: B1 RNA 1
RNA 2: B1 RNA 2 with A28C, G29C, A53G, A54C
B31: target 1 MT 5'PFS CCU 3'PFS UCA (mixed)
RNA 1: B1 RNA 1
RNA 2: B1 RNA 2 with U27C, A28C, G29U, A53C
B32: target 1 MT 5'PFS UCC 3'PFS UGA (mixed)
RNA 1: B1 RNA 1
RNA 2: B1 RNA 2 with A28C, G29C, A53G
B33: target 1 MT 5'PFS AGU 3'PFS ACA (mixed)
RNA 1: B1 RNA 1
RNA 2: B1 RNA 2 with U27A, A28G, G29U, U52A, A53C

Residue numbers refer to the chain shown, from its start. In names and notes the source's numbering stands.

The data set concerns the target T1, EsCas13d, nuclease-dead. Description: crRNA (strand 1, pre-loaded); Mg2+; 40 mM Tris-HCl pH 7.5, 150 mM NaCl, 6 mM MgCl2, 1 mM DTT, 0.1% Tween-20, 0.2 mg/ml BSA; 25 C; 10 min per concentration, then washed. The following applies: tags: His6-TwinStrep-SUMO cleaved; N-terminal SNAP kept (SNAP-Surface 488); label: 3' end held by stalled T7 RNA polymerase.
As a reminder, the Kd is the free concentration of one partner at which half of the binding sites on the other are occupied at equilibrium, for simple one-to-one binding. On to B1, for which binding was put at a Kd of 21.4 ± 4.8 nM. As for B2, the figure is 13 ± 4.5 nM; as for B3, 36 ± 10 nM. In turn, B4 gave a Kd of 16.7 ± 1.1 nM. Next, B5: 12.9 ± 2.25 nM; B6: 32 ± 9.5 nM; B7: 44.5 ± 15 nM. As for B8, the figure is 16.7 ± 3.25 nM. B9 showed a Kd of around 70 nM.

As to B10, the Kd turned out to be 57.5 ± 16 nM.

For the molecule B11, the Kd came out at 47 ± 13.5 nM.

B12 gave a Kd of around 60 nM. For the molecule B13, the Kd is 25.5 ± 8.5 nM. The molecule B14 yielded a Kd of 42 ± 7 nM. B15 came in with a Kd of 21.5 ± 8 nM. B16 yielded a Kd of 61 ± 21.5 nM.

Molecule B17 came in with a Kd of 16.8 ± 2.75 nM. Consider B18, for which binding was characterised by a dissociation constant (Kd) of 47 ± 9.5 nM. B19 gave a Kd of 15.2 ± 1.4 nM.

With B20, the Kd came to 13 ± 4.5 nM. The molecule B21 gave a Kd of 11.3 ± 1.9 nM.

Regarding B22, binding was put at a Kd of 7.35 ± 3.35 nM. Next, B23: 12.2 ± 3.45 nM; B24: 16.1 ± 2.1 nM.

B25 registered a Kd of 17.4 ± 2.8 nM. As for B26, the figure is 82.5 ± 27.5 nM; as for B27, 3.55 ± 0.8 nM. Turning to B28, the Kd was around 80 nM.

Regarding B29, binding was put at a Kd of 38 ± 11 nM. As for B30, the figure is around 12.5 nM; as for B31, 26.5 ± 10.5 nM; as for B32, around 29 nM.

In turn, B33 registered a Kd of 65 ± 29 nM.

The values are drawn from publication PMC10786891, “Massively parallel profiling of RNA-targeting CRISPR-Cas13d”.
